Experimental data as given in patent US20180371090A1.
Positions count from the first letter of the chain named. Values belong to the binder of their own block, whether it stands above or below them.

How the values were obtained:
[1] = biological target: human CD3 on Jurkat cells (human) (UniProt P07766); assay: flow cytometry on Jurkat cells, FITC anti-human IgG secondary
[2] = biological target: FcγRI and FcγRIIA on U937 cells; assay: flow cytometry on U937 cells (FcγRI and FcγRIIA), FITC goat anti-human Fab secondary, MFI
[3] = biological target: His-tagged human FcγRIIA (R131) (human) (UniProt P12318); assay: SPR steady-state, His-captured receptor, 25 C
Sequence of His-tagged human FcγRIIA (R131) (human) (P12318 36-218 H167R limits assumed): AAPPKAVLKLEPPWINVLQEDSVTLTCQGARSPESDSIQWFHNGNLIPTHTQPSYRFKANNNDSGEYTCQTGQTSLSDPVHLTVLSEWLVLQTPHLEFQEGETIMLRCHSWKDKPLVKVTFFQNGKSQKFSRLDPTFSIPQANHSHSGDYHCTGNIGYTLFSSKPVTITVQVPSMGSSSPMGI

[4] = biological target: His-tagged human FcγRIIB (human) (UniProt P31994); assay: SPR steady-state, His-captured receptor, 25 C
Sequence of His-tagged human FcγRIIB (human) (P31994 46-217 limits assumed): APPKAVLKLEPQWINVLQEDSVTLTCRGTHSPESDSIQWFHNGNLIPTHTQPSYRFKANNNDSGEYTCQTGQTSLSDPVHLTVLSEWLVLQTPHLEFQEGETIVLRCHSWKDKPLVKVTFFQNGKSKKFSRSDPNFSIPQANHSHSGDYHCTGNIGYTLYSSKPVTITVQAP

[5] = biological target: His-tagged cynomolgus FcγRIIA (cynomolgus); assay: SPR steady-state, His-captured receptor, 25 C
[6] = biological target: His-tagged human FcγRIIA (H131) (human) (UniProt P12318); assay: SPR steady-state, His-captured receptor, 25 C
Sequence of His-tagged human FcγRIIA (H131) (human) (P12318 36-218 limits assumed): as the sequence (P12318 36-218 H167R limits assumed) above, with R132H counted along it

[7] = biological target: His-tagged cynomolgus FcγRIIB (cynomolgus); assay: SPR steady-state, His-captured receptor, 25 C
[8] = biological target: His-tagged cynomolgus FcγRIIIA (cynomolgus) (UniProt Q8SPW2); assay: SPR steady-state, His-captured receptor, 25 C
Sequence of His-tagged cynomolgus FcγRIIIA (cynomolgus) (Q8SPW2 17-208 limits assumed): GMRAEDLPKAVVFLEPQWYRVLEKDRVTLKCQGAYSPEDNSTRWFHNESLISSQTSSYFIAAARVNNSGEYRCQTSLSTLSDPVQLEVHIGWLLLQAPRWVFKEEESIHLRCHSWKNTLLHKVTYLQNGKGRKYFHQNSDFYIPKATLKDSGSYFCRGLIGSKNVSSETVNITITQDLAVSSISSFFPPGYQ

- Geom. Mean:FITC-A [1]: 1390
- EC50 [2]: 0.0335 µM
B1: Antibody 1, sIgG4-anti-CD3_L2K (antibody, part only; not given: L2K light chain, part only)
heavy: DVQLVQSGAEVKKPGASVKVSCKASGYTFTRYTMHWVRQAPGQGLEWIGYINPSRGYTNYADSVKGRFTITTDKSTSTAYMELSSLRSEDTATYYCARYYDDHYCLDYWGQGTTVTVSSASTKGPSVFPLAPCSRSTSESTAALGCLVKDYFPEPVTVSWNSGALTSGVHTFPAVLQSSGLYSLSSVVTVPSSSLGTKTYTCNVDHKPSNTKVDKRVESKYGPPCPPCPAPPVAGPSVFLFPPKPKDTLMISRTPEVTCVVVDVSQEDPEVQFNWYVDGVEVHNAKTKPREEQFNSTYRVVSVLTVLHQDWLNGKEYKCKVSNKGLPSSIEKTISKAKGQPREPQVYTLPPSQEEMTKNQVSLTCLVKGFYPSDIAVEWESNGQPENNYKTTPPVLDSDGSFFLYSRLTVDKSRWQEGNVFSCSVMHEALHNHYTQKSLSLSLGK

- Kd [3]: 19.3 µM
- Kd [4]: 123 µM
- Kd [5]: 23.1 µM
- Kd [6]: 12 µM
- Kd [7]: 13.9 µM
- Kd [8]: 66.3 µM
B2: Antibody 4, anti-CD3 x anti-CD20 bispecific antibody with chimeric IgG4 constant regions (bispecific antibody, part only; not given: variable domains of both arms, not shown: another chain or arm of the molecule)
constant 1: ASTKGPSVFPLAPCSRSTSESTAALGCLVKDYFPEPVTVSWNSGALTSGVHTFPAVLQSSGLYSLSSVVTVPSSSLGTKTYTCNVDHKPSNTKVDKRVESKYGPPCPPCPAPPVAGPSVFLFPPKPKDTLMISRTPEVTCVVVDVSQEDPEVQFNWYVDGVEVHNAKTKPREEQFNSTYRVVSVLTVLHQDWLNGKEYKCKVSNKGLPSSIEKTISKAKGQPREPQVYTLPPSQEEMTKNQVSLTCLVKGFYPSDIAVEWESNGQPENNYKTTPPVLDSDGSFFLYSRLTVDKSRWQEGNVFSCSVMHEALHNHYTQKSLSLSLGK
constant 2: B2 constant 1 with H314R, Y315F
